Measured values as given in PMC5264652 (EBioMedicine, 2016).
Several values for one entry are separate records, joined by “and”; a condition that tells them apart may be missing. Equal entries are not always repeated. Where two headings read alike, the source gives them in different places.

B4: Human fibrinogen (complex)
chain 1: ADSGEGDFLAEGGGVRGPRVVERHQSACKDSDWPFCSDEDWNYKCPSGCRMKGLIDEVNQDFTNRINKLKNSLFEYQKNNKDSHSLTTNIMEILRGDFSSANNRDNTYNRVSEDLRSRIEVLKRKVIEKVQHIQLLQKNVRAQLVDMKRLEVDIDIKIRSCRGSCSRALAREVDLKDYEDQQKQLEQVIAKDLLPSRDRQHLPLIKMKPVPDLVPGNFKSQLQKVPPEWKALTDMPQMRMELERPGGNEITRGGSTSYGTGSETESPRNPSSAGSWNSGSSGPGSTGNRNPGSSGTGGTATWKPGSSGPGSTGSWNSGSSGTGSTGNQNPGSPRPGSTGTWNPGSSERGSAGHWTSESSVSGSTGQWHSESGSFRPDSPGSGNARPNNPDWGTFEEVSGNVSPGTRREYHTEKLVTSKGDKELRTGKEKVTSGSTTTTRRSCSKTVTKTVIGPDGHKEVTKEVVTSEDGSDCPEAMDLGTLSGIGTLDGFRHRHPDEAAFFDTASTGKTFPGFFSPMLGEFVSETESRGSESGIFTNTKESSSHHPGIAEFPSRGKSSSYSKQFTSSTSYNRGDSTFESKSYKMADEAGSEADHEGTHSTKRGHAKSRPVRGIHTSPLGKPSLSP
chain 2: QGVNDNEEGFFSARGHRPLDKKREEAPSLRPAPPPISGGGYRARPAKAAATQKKVERKAPDAGGCLHADPDLGVLCPTGCQLQEALLQQERPIRNSVDELNNNVEAVSQTSSSSFQYMYLLKDLWQKRQKQVKDNENVVNEYSSELEKHQLYIDETVNSNIPTNLRVLRSILENLRSKIQKLESDVSAQMEYCRTPCTVSCNIPVVSGKECEEIIRKGGETSEMYLIQPDSSVKPYRVYCDMNTENGGWTVIQNRQDGSVDFGRKWDPYKQGFGNVATNTDGKNYCGLPGEYWLGNDKISQLTRMGPTELLIEMEDWKGDKVKAHYGGFTVQNEANKYQISVNKYRGTAGNALMDGASQLMGENRTMTIHNGMFFSTYDRDNDGWLTSDPRKQCSKEDGGGWWYNRCHAANPNGRYYWGGQYTWDMAKHGTDDGVVWMNWKGSWYSMRKMSMKIRPFFPQQ
chain 3: YVATRDNCCILDERFGSYCPTTCGIADFLSTYQTKVDKDLQSLEDILHQVENKTSEVKQLIKAIQLTYNPDESSKPNMIDAATLKSRKMLEEIMKYEASILTHDSSIRYLQEIYNSNNQKIVNLKEKVAQLEAQCQEPCKDTVQIHDITGKDCQDIANKGAKQSGLYFIKPLKANQQFLVYCEIDGSGNGWTVFQKRLDGSVDFKKNWIQYKEGFGHLSPTGTTEFWLGNEKIHLISTQSAIPYALRVELEDWNGRTSTADYAMFKVGPEADKYRLTYAYFAGGDAGDAFDGFDFGDDPSDKFFTSHNGMQFSTWDNDNDKFEGNCAEQDGSGWWMNKCHAGHLNGVYYQGGTYSKASTPNGYDNGIIWATWKTRWYSMKKTTMKIIPFNRLTIGEGQQHHLGGAKQAGDV
B5: ClfA_(229–545) (domain or fragment)
chain: GTDITNQLTNVTVGIDSGTTVYPHQAGYVKLNYGFSVPNSAVKGDTFKITVPKELNLNGVTSTAKVPPIMAGDQVLANGVIDSDGNVIYTFTDYVNTKDDVKATLTMPAYIDPENVKKTGNVTLATGIGSTTANKTVLVDYEKYGKFYNLSIKGTIDQIDKTNNTYRQTIYVNPSGDNVIAPVLTGNLKPNTDSNALIDQQNTSIKVYKVDNAADLSESYFVNPENFEDVTNSVNITFPNPNQYKVEFNTPDDQITTPYIVVVNGHIDPNSKGDLALRSTLYGYNSNIIWRSMSWDNEVAFNNGSGSGDGIDKPVVP

Columns and labels:
Assay in all cases: SPR
GST-tagged Fg γ peptide = target: GST-tagged Fg γ peptide
Human fibrinogen [1] = target: B4
Fibrinogen D-fragment [2] = target: T1, Fibrinogen D-fragment (UniProt P02671;P02675;P02679-2)
T1 sequence 1: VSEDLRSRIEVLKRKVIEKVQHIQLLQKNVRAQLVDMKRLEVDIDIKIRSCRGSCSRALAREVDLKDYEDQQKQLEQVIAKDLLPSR
T1 sequence 2: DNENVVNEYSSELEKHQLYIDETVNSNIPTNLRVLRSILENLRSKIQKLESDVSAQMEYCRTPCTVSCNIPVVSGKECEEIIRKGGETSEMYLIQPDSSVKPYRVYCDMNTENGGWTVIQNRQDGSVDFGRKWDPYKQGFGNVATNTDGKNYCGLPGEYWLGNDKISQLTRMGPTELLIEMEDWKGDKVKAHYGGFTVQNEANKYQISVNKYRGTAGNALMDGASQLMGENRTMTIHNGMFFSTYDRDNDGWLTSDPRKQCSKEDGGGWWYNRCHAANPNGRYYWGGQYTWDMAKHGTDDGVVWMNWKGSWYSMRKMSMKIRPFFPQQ
T1 sequence 3: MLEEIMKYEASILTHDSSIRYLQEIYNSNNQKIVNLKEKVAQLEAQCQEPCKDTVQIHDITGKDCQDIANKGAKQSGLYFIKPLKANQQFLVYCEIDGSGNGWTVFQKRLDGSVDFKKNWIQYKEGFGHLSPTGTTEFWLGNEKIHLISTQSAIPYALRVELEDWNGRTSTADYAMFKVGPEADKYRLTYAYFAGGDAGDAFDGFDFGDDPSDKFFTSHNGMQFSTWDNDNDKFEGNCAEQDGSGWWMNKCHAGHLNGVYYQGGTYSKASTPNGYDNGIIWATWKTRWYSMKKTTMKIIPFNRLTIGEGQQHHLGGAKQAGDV

ClfA_(229–545) [3] = target: ClfA_(229–545) (S. aureus strain Newman, UniProt Q53653)
Human fibrinogen [4] = target: B4; remark: listed apart in the source
Fibrinogen D-fragment [5] = target: T1, Fibrinogen D-fragment; remark: listed apart in the source
ClfA_(229–545) [6] = target: B5

ClfA N3 (ClfA_(370–559)) (from UniProt Q53653 370-559) (domain or fragment)
fold lower affinity against intact Fg or Fg D-fragment (GST-tagged Fg γ peptide): 10 fold

ClfA_(229–545) (from UniProt Q53653 229-545) (domain or fragment)
fold difference in KD against Fg or Fg D-fragment (GST-tagged Fg γ peptide): 50 fold

B1: ClfAPWY (domain or fragment)
chain: VAADAPAAGTDITNQLTNVTVGIDSGTTVYPHQAGYVKLNYGFSVPNSAVKGDTFKITVPKELNLNGVTSTAKVPPIMAGDQVLANGVIDSDGNVIYTFTDYVNTKDDVKATLTMPAYIDPENVKKTGNVTLATGIGSTTANKTVLVDYEKYGKFYNLSIKGTIDQIDKTNNTYRQTIYVNPSGDNVIAPVLTGNLKPNTDSNALIDQQNTSIKVYKVDNAADLSESYFVNPENFEDVTNSVNITFANPNQYKVEFNTPDDQITTPYIVVVNGHIDPNSKGDLALRSTLYGANSNIIARSMSWDNEVAFNNGSGSGDGIDKPVVPEQPDEPGEIEPIPE
Kd (Human fibrinogen [1]): 10000 nM | Kd (Fibrinogen D-fragment [2]): 17000 nM

B2: tefibazumab (antibody, V domains shown)
VH: QVQLKESGPGLVKPSQTLSITCTISGFSLSRYSVHWVRQPPGKGLEWLGMIWGGGNTDYNSALKSRLSISKDNSKNQVFLKMNSLTAADTAVYYCARKGEFYYGYDGFVYWGQGTLVTVSS
VL: DIVMTQSPDSLAVSLGERVTMNCKSSQSVLYSSNQKNYLAWYQQKPGQSPKLLIYWASTRESGVPDRFSGSGSGTDFTLTISSVQAEDLAVYYCHQYLSSYTFGGGTKLEIK
IC50 (ClfA_(229–545) [3]): 330 nM and 390 nM | Kd (ClfA_(229–545) [3]): 0.79 nM and 0.81 nM and 0.7 nM | koff (ClfA_(229–545) [3]): 0.00049 s⁻¹ | kon (ClfA_(229–545) [3]): 594000 M⁻¹ s⁻¹

B3: ClfA N3 (ClfA_(370–559)) (domain or fragment)
chain: EKYGKFYNLSIKGTIDQIDKTNNTYRQTIYVNPSGDNVIAPVLTGNLKPNTDSNALIDQQNTSIKVYKVDNAADLSESYFVNPENFEDVTNSVNITFPNPNQYKVEFNTPDDQITTPYIVVVNGHIDPNSKGDLALRSTLYGYNSNIIWRSMSWDNEVAFNNGSGSGDGIDKPVVPEQPDEPGEIEPIPE
fold of KD against ClfA229-545 on the same protein (Human fibrinogen [4]): ~10 fold | fold of KD against ClfA229-545 on the same protein (Fibrinogen D-fragment [5]): ~10 fold

B4
IC50 (ClfA_(229–545) [6]): 430 nM and 480 nM

B5
Kd (Human fibrinogen [4]): 610 nM and 660 nM
